Experiment in all cases: TIRF microscopy binding assay
Assay [1] deals with porcine double-stabilized microtubules (dsMTs) (porcine) (UniProt P02550).
For assay [2] the target is unchanged. This is another data set of the same source.
Assay [3] concerns the target AspN-treated double-stabilized microtubules (β-tubulin C-tail removed) (porcine) (UniProt P02550).

Like-named read-outs stand apart in the source and are kept apart here.

In assay [1], “human TTLL11 R601E mutant (from UniProt Q8NHH1 1-710) (enzyme)” displayed a percent reduction of the fluorescence signal (against full-length TTLL11) of 60%.

For “human TTLL11 I594W mutant (from UniProt Q8NHH1 1-710) (enzyme)”, the percent reduction of the fluorescence signal (against full-length TTLL11) in assay [1] was 80%; in assay [2], 95%.

B1: human TTLL11 (tubulin tyrosine ligase-like 11), full length (enzyme)
chain: MRRGSSESELAARWEAEAVAAAKAAAKAEAEATAETVAEQVRVDAGAAGEPECKAGEEQPKVLAPAPAQPSAAEEGNTQVLQRPPPTLPPSKPKPVQGLCPHGKPRDKGRSCKRSSGHGSGENGSQRPVTVDSSKARTSLDALKISIRQLKWKEFPFGRRLPCDIYWHGVSFHDNDIFSGQVNKFPGMTEMVRKITLSRAVRTMQNLFPEEYNFYPRSWILPDEFQLFVAQVQMVKDDDPSWKPTFIVKPDGGCQGDGIYLIKDPSDIRLAGTLQSRPAVVQEYICKPLLIDKLKFDIRLYVLLKSLDPLEIYIAKDGLSRFCTEPYQEPTPKNLHRIFMHLTNYSLNIHSGNFIHSDSASTGSKRTFSSILCRLSSKGVDIKKVWSDIISVVIKTVIALTPELKVFYQSDIPTGRPGPTCFQILGFDILLMKNLKPILLEVNANPSMRIEHEHELSPGVFENVPSLVDEEVKVAVIRDTLRLMDPLKKKRENQSQQLEKPFAGKEDALDGELTSAPDCNANPEAHLPSICLKQVFPKYAKQFNYLRLVDRMANLFIRFLGIKGTMKLGPTGFRTFIRSCKLSSSSLSMAAVDILYIDITRRWNSMTLDQRDSGMCLQAFVEAFFFLAQRKFKMLPLHEQVASLIDLCEYHLSLLDEKRLVCGRGVPSGGRPPHRGPPQEPSPSAQPAGDNPPPRTSCANKLSHPRHTLS
modifications: Janelia 549-HALO probe on the HALO tag (in the TIRF assay)
B1: the percent lower fluorescence signal than on intact MTs in assay [3] is 50%.

For the origin of these results see doi:10.1101/2025.02.24.639257.
